Results published in article doi:10.1101/2025.09.11.675469.
Where two headings read alike, the source gives them in different places.

T1: LIN28A (UniProt Q9H9Z2 1-209)
T1 sequence: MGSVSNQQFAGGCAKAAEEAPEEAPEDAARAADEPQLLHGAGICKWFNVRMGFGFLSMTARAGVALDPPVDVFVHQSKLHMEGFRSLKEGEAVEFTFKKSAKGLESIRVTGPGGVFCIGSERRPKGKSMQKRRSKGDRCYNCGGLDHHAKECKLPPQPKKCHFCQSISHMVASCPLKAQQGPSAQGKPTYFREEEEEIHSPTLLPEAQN

B1: HOXB9 original (structured_RNA)
RNA: GGGACAAGUGGUCUGGGACAGGGAGGAGCAAC
B2: HOXB9 m6A (structured_RNA)
RNA: B1 RNA
modifications: one m6A; position marked only by red colour (not recoverable from text)

Key:
LIN28A [1] = target: T1, LIN28A; assay: EMSA
LIN28A [2] = target: T1, LIN28A; assay: EMSA; remark: listed apart in the source

Binder | binding result (LIN28A [1]) | binding result (LIN28A [2])
B1 | binds | 
B2 |  | binds
